The supplement of paper PMC10567573

B1: ADD1 (parent)
chain: GEGTGSPPKWQIGEQEFEALMRML
B2: PLK2 (parent)
chain: YAELGQCSVFPATDAPEQFISQVT

Variants of: B1
Assay: protein stability index of a GFP-peptide fusion (GPS, HEK-293T) (PSI 1-6); higher = more stable
Details: c terminus: a fixed tail appended
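Also: lentivirally expressed fusions sorted by FACS into six bins by GFP to DsRed ratio, PSI derived from sequencing read proportions per bin multiplied by bin number.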

| Variant | protein stability index |
| --- | --- |
| GEGPGSPPKWQIGEQEFEALMRML [T4P] | 3.06 |
| GEGDGSPPKWQIGEQEFEALMRML [T4D] | 2.96 |
| GEGVGSPPKWQIGEQEFEALMRML [T4V] | 2.98 |
| GEGCGSPPKWQIGEQEFEALMRML [T4C] | 2.94 |
| GEGNGSPPKWQIGEQEFEALMRML [T4N] | 3.07 |
| GEGFGSPPKWQIGEQEFEALMRML [T4F] | 2.35 |
| GEGAGSPPKWQIGEQEFEALMRML [T4A] | 3.63 |
| GEGSGSPPKWQIGEQEFEALMRML [T4S] | 3.08 |
| GEGWGSPPKWQIGEQEFEALMRML [T4W] | 2.36 |
| GEGIGSPPKWQIGEQEFEALMRML [T4I] | 2.75 |
| GEGLGSPPKWQIGEQEFEALMRML [T4L] | 3.38 |
| GEGEGSPPKWQIGEQEFEALMRML [T4E] | 3.51 |
| GEGRGSPPKWQIGEQEFEALMRML [T4R] | 3.44 |
| GEGYGSPPKWQIGEQEFEALMRML [T4Y] | 3.26 |
| GEGMGSPPKWQIGEQEFEALMRML [T4M] | 3.01 |
| GEGGGSPPKWQIGEQEFEALMRML [T4G] | 3.14 |
| GEGQGSPPKWQIGEQEFEALMRML [T4Q] | 3.08 |
| GEGHGSPPKWQIGEQEFEALMRML [T4H] | 3.19 |
| GEGKGSPPKWQIGEQEFEALMRML [T4K] | 2.13 |
| GEGTGSPVKWQIGEQEFEALMRML [P8V] | 2.2 |
| GEGTGSPIKWQIGEQEFEALMRML [P8I] | 2.31 |
| GEGTGSPFKWQIGEQEFEALMRML [P8F] | 2.36 |

| Variant | protein stability index |
| --- | --- |
| GEGTGSPQKWQIGEQEFEALMRML [P8Q] | 2.79 |
| GEGTGSPCKWQIGEQEFEALMRML [P8C] | 2.27 |
| GEGTGSPEKWQIGEQEFEALMRML [P8E] | 3.66 |
| GEGTGSPYKWQIGEQEFEALMRML [P8Y] | 2.49 |
| GEGTGSPSKWQIGEQEFEALMRML [P8S] | 2.82 |
| GEGTGSPNKWQIGEQEFEALMRML [P8N] | 3.24 |
| GEGTGSPTKWQIGEQEFEALMRML [P8T] | 2.85 |
| GEGTGSPAKWQIGEQEFEALMRML [P8A] | 3.07 |
| GEGTGSPRKWQIGEQEFEALMRML [P8R] | 3.14 |
| GEGTGSPKKWQIGEQEFEALMRML [P8K] | 2.52 |
| GEGTGSPLKWQIGEQEFEALMRML [P8L] | 2.6 |
| GEGTGSPMKWQIGEQEFEALMRML [P8M] | 2.63 |
| GEGTGSPGKWQIGEQEFEALMRML [P8G] | 3 |
| GEGTGSPHKWQIGEQEFEALMRML [P8H] | 2.56 |
| GEGTGSPDKWQIGEQEFEALMRML [P8D] | 3.84 |
| GEGTGSPWKWQIGEQEFEALMRML [P8W] | 2.29 |
| GEGTGDPPKWQIGEQEFEALMRML [S6D] | 3.25 |
| GEGTGYPPKWQIGEQEFEALMRML [S6Y] | 2.59 |
| GEGTGPPPKWQIGEQEFEALMRML [S6P] | 2.95 |
| GEGTGMPPKWQIGEQEFEALMRML [S6M] | 3.91 |
| GEGTGHPPKWQIGEQEFEALMRML [S6H] | 2.76 |
| GEGTGNPPKWQIGEQEFEALMRML [S6N] | 2.8 |

| Variant | protein stability index |
| --- | --- |
| GEGTGQPPKWQIGEQEFEALMRML [S6Q] | 2.85 |
| GEGTGIPPKWQIGEQEFEALMRML [S6I] | 2.75 |
| GEGTGLPPKWQIGEQEFEALMRML [S6L] | 3.03 |
| GEGTGRPPKWQIGEQEFEALMRML [S6R] | 3.75 |
| GEGTGAPPKWQIGEQEFEALMRML [S6A] | 2.87 |
| GEGTGTPPKWQIGEQEFEALMRML [S6T] | 2.68 |
| GEGTGWPPKWQIGEQEFEALMRML [S6W] | 2.19 |
| GEGTGGPPKWQIGEQEFEALMRML [S6G] | 2.55 |
| GEGTGFPPKWQIGEQEFEALMRML [S6F] | 1.88 |
| GEGTGVPPKWQIGEQEFEALMRML [S6V] | 2.46 |
| GEGTGCPPKWQIGEQEFEALMRML [S6C] | 2.75 |
| GEGTGEPPKWQIGEQEFEALMRML [S6E] | 3.45 |
| GEGTGKPPKWQIGEQEFEALMRML [S6K] | 2.12 |
| GEGTQSPPKWQIGEQEFEALMRML [G5Q] | 3.49 |
| GEGTNSPPKWQIGEQEFEALMRML [G5N] | 3.28 |
| GEGTLSPPKWQIGEQEFEALMRML [G5L] | 2.9 |
| GEGTHSPPKWQIGEQEFEALMRML [G5H] | 3.12 |
| GEGTKSPPKWQIGEQEFEALMRML [G5K] | 2.15 |
| GEGTRSPPKWQIGEQEFEALMRML [G5R] | 2.77 |
| GEGTFSPPKWQIGEQEFEALMRML [G5F] | 2.46 |
| GEGTVSPPKWQIGEQEFEALMRML [G5V] | 3.09 |
| GEGTPSPPKWQIGEQEFEALMRML [G5P] | 2.83 |

| Variant | protein stability index |
| --- | --- |
| GEGTASPPKWQIGEQEFEALMRML [G5A] | 3.39 |
| GEGTCSPPKWQIGEQEFEALMRML [G5C] | 2.86 |
| GEGTESPPKWQIGEQEFEALMRML [G5E] | 3.21 |
| GEGTTSPPKWQIGEQEFEALMRML [G5T] | 3 |
| GEGTYSPPKWQIGEQEFEALMRML [G5Y] | 3.02 |
| GEGTWSPPKWQIGEQEFEALMRML [G5W] | 2.21 |
| GEGTMSPPKWQIGEQEFEALMRML [G5M] | 2.4 |
| GEGTISPPKWQIGEQEFEALMRML [G5I] | 2.74 |
| GEGTDSPPKWQIGEQEFEALMRML [G5D] | 3.15 |
| GEGTSSPPKWQIGEQEFEALMRML [G5S] | 3.01 |
| GEGTGSPPKHQIGEQEFEALMRML [W10H] | 3.99 |
| GEGTGSPPKCQIGEQEFEALMRML [W10C] | 2.93 |
| GEGTGSPPKEQIGEQEFEALMRML [W10E] | 4.28 |
| GEGTGSPPKMQIGEQEFEALMRML [W10M] | 3.27 |
| GEGTGSPPKLQIGEQEFEALMRML [W10L] | 3.06 |
| GEGTGSPPKKQIGEQEFEALMRML [W10K] | 3.57 |
| GEGTGSPPKAQIGEQEFEALMRML [W10A] | 3.71 |
| GEGTGSPPKDQIGEQEFEALMRML [W10D] | 4.58 |
| GEGTGSPPKIQIGEQEFEALMRML [W10I] | 2.86 |
| GEGTGSPPKGQIGEQEFEALMRML [W10G] | 3.97 |
| GEGTGSPPKFQIGEQEFEALMRML [W10F] | 3.26 |

Variants of: B2
Assay: as above
Details: c terminus: a fixed tail appended

| Variant | protein stability index |
| --- | --- |
| YAELGQCSVFPATDAPEQFISQVP [T24P] | 2.08 |
| YAELGQCSVFPATDAPEQFISQVQ [T24Q] | 2.68 |
| YAELGQCSVFPATDAPEQFISQVY [T24Y] | 2 |
| YAELGQCSVFPATDAPEQFISQVN [T24N] | 2.92 |
| YAELGQCSVFPATDAPEQFISQVV [T24V] | 1.9 |
| YAELGQCSVFPATDAPEQFISQVS [T24S] | 2.1 |
| YAELGQCSVFPATDAPEQFISQVR [T24R] | 2.14 |
